Measurements as given in publication PMC5715344, “Structural enzymology comparisons of multifunctional enzyme, type‐1 (MFE1): the flexibility of its dehydrogenase part” (FEBS Open Bio, 2017).

Legend:
Assay in all cases: purified protein
Format in all cases: biochemical, Rattus norvegicus
purified protein [1] = substrate: C/C=C/C(=O)SCCNC(=O)CCNC(=O)[C@H](O)C(C)(C)COP(=O)(O)OP(=O)(O)OC[C@H]1O[C@@H](n2cnc3c(N)ncnc32)[C@H](O)[C@@H]1OP(=O)(O)O; settings: 50 mM Tris pH 9.0, 50 mM KCl, BSA, 25 °C, hydratase site
purified protein [2] = substrate: CC(=O)CC(=O)SCCNC(=O)CCNC(=O)[C@H](O)C(C)(C)COP(=O)(O)OP(=O)(O)OC[C@H]1O[C@@H](n2cnc3c(N)ncnc32)[C@H](O)[C@@H]1OP(=O)(O)O; settings: 0.1 mM NADH, 50 mM Tris/HCl pH 7.0, 50 mM KCl, BSA, 25 °C, dehydrogenase site
purified protein [3] = substrate: C[C@H](O)CC(=O)SCCNC(=O)CCNC(=O)[C@H](O)C(C)(C)COP(=O)(O)OP(=O)(O)OC[C@H]1O[C@@H](n2cnc3c(N)ncnc32)[C@H](O)[C@@H]1OP(=O)(O)O; settings: 1 mM NAD+, 50 mM Tris pH 9.0, 50 mM KCl, BSA, 25 °C, dehydrogenase site, substrate generated in situ from 2E-butenoyl-CoA by the enzyme's own hydratase site

B1: rat peroxisomal multifunctional enzyme, type-1 (rpMFE1) (Rattus norvegicus) (protein)
chain: MAEYLRLPHSLAMIRLCNPPVNAVSPTVIREVRNGLQKAGSDHTVKAIVICGANGNFCAGADIHGFSAFTPGLALGSLVDEIQRYQKPVLAAIQGVALGGGLELALGCHYRIANAKARVGLPEVTLGILPGARGTQLLPRVVGVPVALDLITSGKYLSADEALRLGILDAVVKSDPVEEAIKFAQKIIDKPIEPRRIFNKPVPSLPNMDSVFAEAIAKVRKQYPGVLAPETCVRSIQASVKHPYEVGIKEEEKLFMYLRASGQAKALQYAFFAEKSANKWSTPSGASWKTASAQPVSSVGVLGLGTMGRGIAISFARVGISVVAVESDPKQLDAAKKIITFTLEKEASRAHQNGQASAKPKLRFSSSTKELSTVDLVVEAVFEDMNLKKKVFAELSALCKPGAFLCTNTSALNVDDIASSTDRPQLVIGTHFFSPAHVMRLLEVIPSRYSSPTTIATVMSLSKKIGKIGVVVGNCYGFVGNRMLAPYYNQGFFLLEEGSKPEDVDGVLEEFGFKMGPFRVSDLAGLDVGWKIRKGQGLTGPSLPPGTPVRKRGNSRYSPLGDMLCEAGRFGQKTGKGWYQYDKPLGRIHKPDPWLSTFLSQYREVHHIEQRTISKEEILERCLYSLINEAFRILEEGMAARPEHIDVIYLHGYGWPRHKGGPMFYAASVGLPTVLEKLQKYYRQNPDIPQLEPSDYLRRLVAQGSPPLKEWQSLAGPHGSKL
notes: full length, 722 residues, pET15b recombinant; crystal model of molecule A starts at residue -4 (N-terminal vector/tag residues present); monomer
Protein B1 has a Km (purified protein [1]) of 82.0 ± 18.0 µM, a kcat (purified protein [1]) of 113 ± 33 s⁻¹ and a kcat/Km (purified protein [1]) of 1.4e+06 M⁻¹ s⁻¹. The Km (purified protein [2]) was 44.0 ± 15.0 µM, the kcat (purified protein [2]) was 23 ± 2.3 s⁻¹ and the kcat/Km (purified protein [2]) was 500000 M⁻¹ s⁻¹. For the same protein, the Km (purified protein [3]) was 3.6 ± 1.0 µM, the kcat (purified protein [3]) was 1.7 ± 0.1 s⁻¹ and the kcat/Km (purified protein [3]) was 500000 M⁻¹ s⁻¹.
